We go through one molecule from paper PMC5524754, “Angiopoietin-like 4 induces a β-catenin-mediated upregulation of ID3 in fibroblasts to reduce scar collagen expression” (Scientific Reports, 2017).

The target in this assay is T1, Extracellular domain of human CDH11 (Abnova) (human, UniProt P55287 54-617).
T1 construct: cadherin-11 (CDH11), human, extracellular domain; No catalogue number is printed; also called cadherin-11; immobilized CDH11; source: bought: Abnova
T1 sequence (looked up): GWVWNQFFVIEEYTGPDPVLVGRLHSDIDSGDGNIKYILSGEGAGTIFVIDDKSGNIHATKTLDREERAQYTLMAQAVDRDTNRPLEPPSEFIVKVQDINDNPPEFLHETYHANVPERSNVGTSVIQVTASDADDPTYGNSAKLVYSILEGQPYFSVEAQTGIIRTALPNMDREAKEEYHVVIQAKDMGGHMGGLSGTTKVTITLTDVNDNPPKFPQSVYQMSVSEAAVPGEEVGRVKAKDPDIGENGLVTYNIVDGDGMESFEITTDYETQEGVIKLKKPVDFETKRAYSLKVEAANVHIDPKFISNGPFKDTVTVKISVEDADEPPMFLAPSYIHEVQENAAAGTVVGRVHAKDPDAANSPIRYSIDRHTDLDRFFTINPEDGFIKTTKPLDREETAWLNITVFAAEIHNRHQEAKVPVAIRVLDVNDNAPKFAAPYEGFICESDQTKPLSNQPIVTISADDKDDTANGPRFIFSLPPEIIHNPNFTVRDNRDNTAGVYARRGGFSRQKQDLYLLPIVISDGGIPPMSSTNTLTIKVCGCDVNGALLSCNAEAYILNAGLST
The assay can be described thus: SPR; BIACore 3000; extracellular domain of human CDH11 immobilised on a CM5 chip by amine coupling; PBS running buffer; cANGPTL4 injected at 28.6, 14.3, 7.15, 3.58 and 1.79 nM, 10 uL/min; Langmuir 1:1 model. The conditions noted are these: both partners purified.

B1: recombinant human cANGPTL4 (C-terminal fibrinogen-like domain of angiopoietin-like 4) (domain or fragment, UniProt Q9BY76 179-401, looked up)
chain: SRLHRLPRDCQELFQVGERQSGLFEIQPQGSPPFLVNCKMTSDGGWTVIQRRHDGSVDFNRPWEAYKAGFGDPHGEFWLGLEKVHSITGDRNSRLAVQLRDWDGNAELLQFSVHLGGEDTAYSLQLTAPVAGQLGATTVPPSGLSVPFSTWDQDHDLRRDKNCAKSLSGGWWFGTCSHSNLNGQYFRSIPQQRQKLKKGIFWKTWRGRYYPLQATTMLIQPMA
notes: angiopoietin-like 4 (ANGPTL4), human, C-terminal fibrinogen-like domain (cANGPTL4); also called recombinant cANGPTL4 protein; source: purified protein for SPR, added to fibroblast cultures and applied to wounds
B1 returned a Kd of 42.8 nM. This counts as double-digit nanomolar.
